In patent US20260000781A1 (CIDARA THERAPEUTICS, published 2026):

T1: mouse CD73 expressed on cells (mouse, UniProt Q61503 29-551)
T1 sequence (looked up): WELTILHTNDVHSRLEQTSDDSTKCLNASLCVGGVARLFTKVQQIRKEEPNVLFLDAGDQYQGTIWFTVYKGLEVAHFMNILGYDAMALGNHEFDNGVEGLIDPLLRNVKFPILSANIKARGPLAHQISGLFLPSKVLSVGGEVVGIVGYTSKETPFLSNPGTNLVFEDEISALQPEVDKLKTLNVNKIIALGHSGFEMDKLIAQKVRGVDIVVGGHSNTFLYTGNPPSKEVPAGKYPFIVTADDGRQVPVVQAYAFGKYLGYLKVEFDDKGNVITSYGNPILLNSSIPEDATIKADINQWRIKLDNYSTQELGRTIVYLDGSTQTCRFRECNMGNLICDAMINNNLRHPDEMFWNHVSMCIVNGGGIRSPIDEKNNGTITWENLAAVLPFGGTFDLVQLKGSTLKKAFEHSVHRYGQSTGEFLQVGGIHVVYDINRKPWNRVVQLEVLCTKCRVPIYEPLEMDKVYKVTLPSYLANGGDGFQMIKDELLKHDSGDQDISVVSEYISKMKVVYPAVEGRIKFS

T2: Enzymatically active His-tagged human CD73/NT5E protein (human, UniProt P21589 27-547)
T2 construct: Bought protein; also called human CD73/NT5E protein, His-tag (Acro Biosystems cat CD3-H52H7); not shown: His-tag
T2 sequence (looked up): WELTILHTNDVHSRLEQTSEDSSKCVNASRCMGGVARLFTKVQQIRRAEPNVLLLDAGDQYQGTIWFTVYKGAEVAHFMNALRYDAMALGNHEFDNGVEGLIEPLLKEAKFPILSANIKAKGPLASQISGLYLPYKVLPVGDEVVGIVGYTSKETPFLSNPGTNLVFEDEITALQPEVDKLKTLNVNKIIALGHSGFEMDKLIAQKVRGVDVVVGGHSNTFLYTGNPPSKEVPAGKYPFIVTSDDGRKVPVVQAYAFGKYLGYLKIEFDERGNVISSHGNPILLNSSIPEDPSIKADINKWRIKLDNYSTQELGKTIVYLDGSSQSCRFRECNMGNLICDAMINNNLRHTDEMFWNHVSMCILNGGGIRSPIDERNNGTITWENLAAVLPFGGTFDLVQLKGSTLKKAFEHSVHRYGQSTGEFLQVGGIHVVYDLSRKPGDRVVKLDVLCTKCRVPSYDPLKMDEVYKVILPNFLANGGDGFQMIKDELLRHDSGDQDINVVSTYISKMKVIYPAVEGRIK

T3: human CD73 expressed on cells (human, UniProt P21589 27-549)
T3 sequence (looked up): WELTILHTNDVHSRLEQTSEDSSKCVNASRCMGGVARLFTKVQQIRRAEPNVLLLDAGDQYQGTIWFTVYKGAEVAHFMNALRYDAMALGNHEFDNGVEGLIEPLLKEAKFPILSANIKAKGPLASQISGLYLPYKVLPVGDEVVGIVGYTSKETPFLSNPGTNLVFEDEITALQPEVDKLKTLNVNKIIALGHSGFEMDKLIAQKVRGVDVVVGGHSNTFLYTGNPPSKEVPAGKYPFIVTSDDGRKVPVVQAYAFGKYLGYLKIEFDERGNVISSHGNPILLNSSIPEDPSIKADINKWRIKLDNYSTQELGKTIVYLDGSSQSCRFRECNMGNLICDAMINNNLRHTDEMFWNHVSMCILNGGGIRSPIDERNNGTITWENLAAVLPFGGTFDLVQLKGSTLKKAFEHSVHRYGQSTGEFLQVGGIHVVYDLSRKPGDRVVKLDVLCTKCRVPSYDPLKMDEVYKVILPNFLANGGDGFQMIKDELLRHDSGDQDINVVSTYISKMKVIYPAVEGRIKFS

B1: Mupadolimab (antibody, V domains shown)
VH: QVQLVQSGAEVEKPGASVKVSCKASGYTFTSYWITWVRQAPGQGLEWMGDIYPGSGNTNYNEKFKTRVTITADKSTSTAYMELSSLRSEDTAVYYCAKEGGLTTEDYALDYWGQGTLVTVSS
VL: EIVLTQSPATLSLSPGERATLSCRASKNVSTSGYSYMHWYQQKPGQAPRLLIYLASNLESGIPPRFSGSGYGTDFTLTINNIESEDAAYYFCQHSRELPFTFGQGTKVEIK
B2: Oleclumab (antibody, V domains shown)
VH: EVQLLESGGGLVQPGGSLRLSCAASGFTFSSYAYSWVRQAPGKGLEWVSAISGSGGRTYYADSVKGRFTISRDNSKNTLYLQMNSLRAEDTAVYYCARLGYGRVDEWGRGTLVTVSS
VL: QSVLTQPPSASGTPGQRVTISCSGSLSNIGRNPVNWYQQLPGTAPKLLIYLDNLRLSGVPDRFSGSKSGTSASLAISGLQSEDEADYYCATWDDSHPGWTFGGGTKLTVL

Experiments:
[1] = target: T1, mouse CD73 expressed on cells; experiment: cell-based or functional assay
[2] = target: T1, mouse CD73 expressed on cells; experiment: cell-based or functional assay; remark: listed apart in the source
[3] = target: T2, Enzymatically active His-tagged human …; experiment: SPR (Biacore 8K), His-tagged human CD73 captured by anti-His antibody, mAb as analyte
[4] = target: T3, human CD73 expressed on cells; experiment: cell-based or functional assay
[5] = target: T3, human CD73 expressed on cells; experiment: cell-based or functional assay; remark: listed apart in the source
[6] = target: T3, human CD73 expressed on cells; experiment: cell-based or functional assay; remark: listed apart in the source
[7] = target: T3, human CD73 expressed on cells; experiment: cell-based or functional assay; remark: listed apart in the source
[8] = target: T3, human CD73 expressed on cells; experiment: cell-based or functional assay; remark: listed apart in the source
[9] = target: T3, human CD73 expressed on cells; experiment: cell-based or functional assay; remark: listed apart in the source
[10] = target: T3, human CD73 expressed on cells; experiment: cell-based or functional assay; remark: listed apart in the source
[11] = target: T3, human CD73 expressed on cells; experiment: cell-based or functional assay; remark: listed apart in the source
[12] = target: T3, human CD73 expressed on cells; experiment: cell-based or functional assay; remark: listed apart in the source

Row | Binder | CD73 inhibition, mouse 4T1 cells, 3 h IC50 [nM] [1] | CD73 inhibition, mouse 4T1 cells, 24 h IC50 [nM] [1] | CD73 inhibition, mouse EMT6 cells, 3 h IC50 [nM] [2] | CD73 inhibition, mouse EMT6 cells, 24 h IC50 [nM] [2] | Kd [3] | cell-based CD73 enzyme inhibition IC50 (MDA-MB-231 cells) [4] | PBMC activation (CD25+), 30 µM AMP EC50 [nM] [5] | PBMC activation, CD8+CD25+ EC50 [nM] [6] | PBMC activation, CD8+granzyme B+ EC50 [nM] [6] | CD73 inhibition, human PBMCs, 3 h median IC50 [nM] [7] | CD73 inhibition, human PBMCs, 24 h median IC50 [nM] [7] | Cell internalization EC50 (nM), Fab-ZAP saporin assay, MDA-MB-231 [8] | CD73 inhibition, human PBMCs, 3 h IC50 [nM] [9] | CD73 inhibition, human PBMCs, 24 h IC50 [nM] [9] | PBMC activation, CD4+CD25+ EC50 [nM] (median, n = 3) [10] | PBMC activation, CD8+CD25+ EC50 [nM] (median, n = 3) [10] | PBMC activation, CD8+Granzyme B+ EC50 [nM] (median, n = 3) [10] | inhibition of adenosine production (AMP conversion by CellTiter-Glo), human PBMCs, EC50 [nM] [11] | Cell-based CD73 inhibition IC50 (nM), MDA-MB-231 cells [12]
1 | B1 | > 100 nM | > 100 nM | > 100 nM | > 100 nM | 123 nM | – | – | – | – | – | – | – | – | – | – | – | – | – | –
2 | B2 | > 100 nM | > 100 nM | 5.68 nM | > 100 nM | 0.527 nM | 0.11 nM | > 1000 nM | > 1000 nM | > 1000 nM | 7.26 nM | 89.4 nM | 0.02 nM | 0.56 nM | > 100 nM | > 1000 nM | > 1000 nM | > 1000 nM | 288 nM | 0.67 nM
